Values joined by “and” are separate entries in the source; they are usually repeats but may differ in a detail not shown here. Identical values can stand only once.
Target: NbNRC2 (Nicotiana benthamiana)
Experiment: native gel or EMSA

stoichiometry N: 2 and 4
Substance: NbNRC2 (receptor)

— publication PMC12521494
